The results in this text go back to patent publication US20240150797A1, “BIOCATALYTICAL PRODUCTION OF DIHYDROCHALCONES” (Symrise AG, priority 2021, published 2024).

Assay type in all cases: biochemical
What all share (details): purified CHI in 50 mM PBS, 100 μM substrate, 25° C.

A short description of data set [1]: Specific activity of purified CHI, absorbance decrease at 384 nm, naringenin chalcone. As to the method: (§1) E. coli BL21 (DE3) cells containing one of the pET28b plasmids from Table 2 or Table 3 were used to inoculate 1 L LB medium at OD of 0.1. Cells were incubated at 37° C., 250 rpm until the OD reached 0.4-0.6 and induced by supplementing with 0.1 mM IPTG. After protein expression at 28° C., 250 rpm for 16 h, the cells were harvested by centrifugation at 4,000×g for 15 min. The harvested cells were lysed with 0.5 mg/mL lysozyme (Sigma-Aldrich), 0.4 U/mL Benzonase (Sigma-Aldrich) and BugBuster (Merck) at room temperature for 0.5 h to obtain a crude cell extract. The crude extract was centrifuged at 10,000×g for 30 min to remove the pellet. Recombinant proteins were purified by Ni-affinity chromatography (GE Healthcare). The supernatant of the crude extract was loaded on the column with 20 mM imidazole. The column was washed by 5 column volumes of 30 mM imidazole with 20 mM PBS (pH 7.4) and 500 mM NaCl. The target proteins were eluted by 150 mM imidazole with 20 mM PBS (pH 7.4) and 500 mM NaCl. Buffer exchange with 50 mM PBS (pH 7.5) was achieved by ultrafiltration with Amicon Ultra-15 (Merck). The activity of the respective purified enzyme was determined by measuring the absorbance decrease at 384 nm in the reaction mix (CHI in 50 mM PBS with 100 μM of either naringenin chalcone, hesperetin chalcone, eriodictyol chalcone, homoeriodictyol chalcone or 4-O-methyl butein at 25° C.).

Data set [2] can be described thus: Specific activity of purified CHI, absorbance decrease at 384 nm, eriodictyol chalcone. As to the method:
as §1

Data set [3] can be described thus: Specific activity of purified CHI, absorbance decrease at 384 nm, homoeriodictyol chalcone. The method, then: as §1
Data set [4] can be described thus: Specific activity of purified CHI, absorbance decrease at 384 nm, hesperetin chalcone. The method, then:
as §1

B1: CHI14: Chalcone isomerase from Butyrivibrio sp. AC2005, access no. WP_026657636.1 (protein)
chain: AYEFNLMRSLIYVGLAKEEYRAKLEHWLYNHHVPESISKFSPYVTKYAFYQAYPTPPEGDRFGARKMQLTEHYWLVNEHLPEMANNIFQEFMPMDVLRWQGCIPDVDSATVHDNAESGDAGRAVGGGDFPPFIFAFVPINWEEDFKGKERTPVNGPNFRWQFLIQYPEGCSKDEGERWFHEEVVPFLTGSVRVNRLVSSKVKVNYGAPSAQFDRLVEVWFDGPEEWYDLCVNLAKDKLKKPEWAQQDTFPFLKPQHNIASMFLGDRCTSDNLTQYRGFITMR
modifications: Butyrivibrio sp. AC2005
For the molecule B1, the “Specific activity, Naringenin chalcone” value in data set [1] was 45.9. In addition, in data set [2], the “Specific activity, Eriodictyol chalcone” value worked out at 50.4. Besides, in data set [3], the “Specific activity, Homoeriodctiol chalcone” value worked out at 28.8. Also, the “Specific activity, Hesperetin chalcone” value in data set [4] was 2.1.

B2: CHI15: Chalcone isomerase from Clostridioides difficile, access no. WP_095917646.1 (protein)
chain: ADFEFKIMRSLIYVGLAKEEYRPKLMDWLYRHHIPDSISTFGPYCTKYAFYQAYPTPNEGERFGARKMQLTEHYWLVDEHMPEMANRIMTEYMPMDVLRWQGCIPDVENKRVHENVESGDAGRAVGGDNGCPPFIFAFVPINWEEDFRGKGRTVQDGPNYRWQFMIKYPDGISKEEGEKWFYDEVVPYFTNCCYVNRFVSSKIMINYGATAFDRVSELWFEGEEEWYKAVVEETKSFIKKPEWAQEEEFPYLKPQFNIASVFLGDIATMDAYSQYRGYIPMR
modifications: Clostridioides difficile
For the molecule B2, the “Specific activity, Naringenin chalcone” value in data set [1] was 14.5. In addition, in data set [2], the “Specific activity, Eriodictyol chalcone” value is on record as 11.7. Besides, the “Specific activity, Homoeriodctiol chalcone” value in data set [3] was determined as 2.2. Further, in data set [4], the “Specific activity, Hesperetin chalcone” value is 1.3.

B3: CHI13: Chalcone isomerase from Lactobacillus sp. 54-2, access no. WP_125715151.1 (protein)
chain: SFEFRPMRSVIYVDVIKEKYRPKLLHWLYGHHIQDSISKFGPYVTKYAFYNAFPVPPEGERFGTRRMQMTEHYWLINEMTPEMKNNAITEYMPKDVLRWQGNIPDTDAAAAGNVDGDTGRSAGGANGCQPFVFAHVPINWEEDYKGDGRMVADGPNYRWQFVIKYPENLTEAAGEAWFHDEVVPYFKGRPEVHRFMSSRIMQDVVGCEFERLVEMWFDSEDEWYTAAVAGTTALKKPSWAQQNQFPFLTPQFNIVGMFLPDIPTSDNLAQYRGYITMR
modifications: Lactobacillus sp. 54-2
Regarding B3, the “Specific activity, Naringenin chalcone” value in data set [1] is recorded as 32.7. Further, the “Specific activity, Eriodictyol chalcone” value in data set [2] was 66.2. The “Specific activity, Homoeriodctiol chalcone” value in data set [3] is given as 21.7. For the same molecule, in data set [4], the “Specific activity, Hesperetin chalcone” value stood at 2.0.

B4: CHI3: Chalcone isomerase from Clostridium sp. JN500901, access no. WP_119972745.1 (protein)
chain: SIEFKPMRSLIYVDVVKEDYRHMLKHWLYYHHIPDSISQFGPYVTKYAFYPALPTPPDGERFGTHRMQLTEHYWLVNPLTPEFKNKTMTEYFPVDVLKWQGNVPDDNEVAILEGKETEKVESGDAARSTGGDNGMPPFIWAFVPISWEEDLKGEGRSMEDGPNYRWQFVMKYPDGVPMEEGDKWFYKEVIPKFQDSPDVTRILTSKIIQNINDCPYQRIVEMWFNCPSGWHRAAVEKAREIKKPSWAKYDEFPYLKPKFEISSLFLTDIAESDNYTQYRGFIPMR
modifications: Clostridium sp. JN500901
For B4, in data set [1], the “Specific activity, Naringenin chalcone” value is 20.0. Also, the “Specific activity, Eriodictyol chalcone” value in data set [2] worked out at 13.2. Besides, the “Specific activity, Homoeriodctiol chalcone” value in data set [3] is on record as 7.8. The “Specific activity, Hesperetin chalcone” value in data set [4] came to 12.8.

B5: CHIera Mut2: Chalcone isomerase variant 2 from Eubacterium ramulus, genetically engineered (protein, listed as Eubacterium ramulus)
chain: MADFKFEPMRSLIYVDCVSEDYRPKLQRWIYKVHIPDSISQFEPYVTKYAFYPSFPIPPQGDRFGYARMQLTEHHWLVSPLDPRLEIKAIAETFPMDVLVWQGQIPAAAHTDAQIDSDGDAGRAAGKSNNAEGNPFIFAFLPMWWEKDLKGKGRTIEDGANYRFNMTIGFPEGVDKAEGEKWLFEKVVPILQAAPECTRVLASAVKKDINGCVMDWVLEIWFENQSGWYKVMVDDMKALEKPSWAQQDAFPFLKPYHNVCSAAVADYTPSNNLANYRGYITMR
Take B5: in data set [1], the “Specific activity, Naringenin chalcone” value is 4.4. Moreover, the “Specific activity, Eriodictyol chalcone” value in data set [2] turned out to be 8.3. Further, the “Specific activity, Homoeriodctiol chalcone” value in data set [3] is on record as 3.5. In addition, in data set [4], the “Specific activity, Hesperetin chalcone” value is 11.5.

B6: CHIera Mut7: Chalcone isomerase variant 7 from Eubacterium ramulus, genetically engineered (protein, listed as Eubacterium ramulus)
chain: MADFKFEPMRSLIYVDCVSEDYRPKLQRWIYKVHIPDSISTFEPYVTKYAFYPSFPIPPQGDRFGYARMQLTEHHWLVSELDPRLEIRAIAETFPMDVLVWQGQIPAAAHTDAQIDSDGDAGDAARKSNNAEGNPFIFAFLPMWWEKDLKGKGRTIEDGANYRFNMTIGFPEGVDKAEGEKWLFEKVVPILQAAPECTRVLASAVKKDINGCVMDWVLEIWFENQSGWYKVMVDDMKALEKPSWAQQDAFPFLKPYHNVCSAAVADYTPSNNLANYRGYITMR
On to B6, for which the “Specific activity, Naringenin chalcone” value in data set [1] is on record as 61.4. Moreover, the “Specific activity, Eriodictyol chalcone” value in data set [2] was determined as 181.3. Further, the “Specific activity, Homoeriodctiol chalcone” value in data set [3] stood at 62.2. In addition, in data set [4], the “Specific activity, Hesperetin chalcone” value stood at 28.4.

B7: CHIera Mut4: Chalcone isomerase variant 4 from Eubacterium ramulus, genetically engineered (protein, listed as Eubacterium ramulus)
chain: MADFKFEPMRSLIYVDCVSEDYRPKLQRWIYKVHIPDSISQFEPYVTKYAFYPSFPIPPQGDRFGYARMQLTEHHWLVSELDPRLEIKAIAETFPMDVLVWQGQIPAAAHTDAQIDSDGDAGRAAKKSNNAEGNPFIFAFLPMWWEKDLKGKGRTIEDGANYRFNMTIGFPEGVDKAEGEKWLFEKVVPILQAAPECTRVLASAVKKDINGCVMDWVLEIWFENQSGWYKVMVDDMKALEKPSWAQQDAFPFLKPYHNVCSAAVADYTPSNNLANYRGYITMR
For the molecule B7, in data set [1], the “Specific activity, Naringenin chalcone” value was 2.3. Further, the “Specific activity, Eriodictyol chalcone” value in data set [2] was determined as 8.9. For the same molecule, the “Specific activity, Homoeriodctiol chalcone” value in data set [3] is recorded as 4.8. In data set [4], the “Specific activity, Hesperetin chalcone” value is on record as 4.7.

B8: CHI7: Chalcone isomerase from Clostridium sp. SY8519, access no. WP_013978403.1 (protein)
chain: ADFKFEPMRSFIYVNCAKEDYRPKLQRWLYKTHVPDSIGQFEPYVTKYAFYPSFPTPPEGERFGYCSMQLTEHHWMVSDFDERLGIKAIAETFPPEVLLWQGNITEGMLEAMKKNGGAPGDDGGDSGNEARSTNMEGANPFIFCFAPYWWEDDIKGKGRTIEDGANYRWNVAIGYPEGVSAEEGDRWLFEEVIPVFEAAPECTRILHSKVKKEINGGSGMEHILEFWFENQSGWYQTAVEATKTLKKPAWAQQDQFPFLKPYHKFISVAVADFTMANNLVNYHGYIPRR
modifications: Clostridium sp. SY8519
For the molecule B8, the “Specific activity, Naringenin chalcone” value in data set [1] is on record as 68.3. For the same molecule, in data set [2], the “Specific activity, Eriodictyol chalcone” value came to 123.6. The “Specific activity, Homoeriodctiol chalcone” value in data set [3] came to 50.2. Besides, in data set [4], the “Specific activity, Hesperetin chalcone” value was 6.4.

B9: CHI11: Chalcone isomerase from Eubacterium sp., access no. SCK02381.1 (protein)
chain: TKNMLGFEPMRSLIYVDVAKEDYRVKLENWLYKYHIPDSISQFGPYVSKYAFYQALPVPEGGERFGAIKMQLTEHYWLANPNNIAQFDHHKALTEYFPPDVLKWQGNLPDEDFQCENVEGDEARAVKGDASKGTVPFIFAFVPVWWEEDYKGAGRTIEDGPNYRWQMVIKFPDDAKDTGDKWLRDEFIPAFVECEETTRILSSKVIKEANGCEFDRVVEMWFEGPSAWKAAVGKAAKKVRRPAWFETEDFPYLTQSYGISSIFLSDIARSDNMTQYNGYVTMR
modifications: Eubacterium sp
Consider B9, for which the “Specific activity, Naringenin chalcone” value in data set [1] is reported as 23.2. The “Specific activity, Eriodictyol chalcone” value in data set [2] turned out to be 10.8. Further, the “Specific activity, Homoeriodctiol chalcone” value in data set [3] is on record as 11.4. The “Specific activity, Hesperetin chalcone” value in data set [4] worked out at 5.8.

B10: CHI10: Chalcone isomerase from Clostridium sp. SY8519, access no. WP_013977558.1 (protein)
chain: ADFEFNPMRSLIYIDCVKNDYRHKLQYWLYKHHIPDSIAKFEPYVSKYAFYSALPVPEDGEEFGTYNYQLTEHYWLCNPLTADFAVNSLQESFTPDVLKWQGIIPDIDITPEMMAAMQNADDARASEGSEAPGFDLPPFIFAFLPLSWEFQTKGEKLTIEDGPNYRWQFLVKYPEAADAEQADKWLMEEVIPAFAQMDEVKRILSSKVKQEVNGCVYYRVVEMWFDSPSDWHRAVKEKTGAISKPEWASTDSFPYLRPKHEMASIFLSDIPTTDNLLQYRGFIPMR
modifications: Clostridium sp. SY8519
Turning to B10, the “Specific activity, Naringenin chalcone” value in data set [1] amounted to 0.7. Also, the “Specific activity, Eriodictyol chalcone” value in data set [2] came out at 2.5. In addition, the “Specific activity, Homoeriodctiol chalcone” value in data set [3] is recorded as 0.2. Besides, in data set [4], the “Specific activity, Hesperetin chalcone” value was determined as 1.2.
